# T1: 6xHis::CENP-C^1–94 (Drosophila melanogaster, UniProt Q9VHP9 1-94)
# T1 construct: also called His-tagged CENP-C 1-94; source: E. coli BL21(DE3)
# T1 sequence (looked up): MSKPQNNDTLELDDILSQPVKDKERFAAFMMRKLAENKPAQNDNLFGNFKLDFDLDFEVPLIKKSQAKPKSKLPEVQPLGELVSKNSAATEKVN
# T2: 6xHis::Nsl1 (Drosophila melanogaster, UniProt Q9VYX4 1-183)
# T2 construct: residues up to 183 are printed; not the NSL-complex protein of the same name; source: E. coli BL21(DE3), co-expressed from Duet vectors (induced overnight); in lysate for Ni-NTA co-purification, then purified (Ni-NTA, SEC)
# T2 sequence (looked up): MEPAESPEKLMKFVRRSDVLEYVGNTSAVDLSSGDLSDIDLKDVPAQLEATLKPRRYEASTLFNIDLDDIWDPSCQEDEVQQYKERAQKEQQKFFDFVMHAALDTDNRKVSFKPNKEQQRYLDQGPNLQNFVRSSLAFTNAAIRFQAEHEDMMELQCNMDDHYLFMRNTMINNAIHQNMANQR
# T3: 6xHis::Nnf1a (Drosophila melanogaster, UniProt Q7JZC9 1-194)
# T3 construct: written 6xHis::Nnf1a; also called polyhistidine (His)-tagged Nnf1a; source: E. coli BL21(DE3), co-expressed from Duet vectors; in lysate for Ni-NTA co-purification, then purified (Ni-NTA, SEC)
# T3 sequence (looked up): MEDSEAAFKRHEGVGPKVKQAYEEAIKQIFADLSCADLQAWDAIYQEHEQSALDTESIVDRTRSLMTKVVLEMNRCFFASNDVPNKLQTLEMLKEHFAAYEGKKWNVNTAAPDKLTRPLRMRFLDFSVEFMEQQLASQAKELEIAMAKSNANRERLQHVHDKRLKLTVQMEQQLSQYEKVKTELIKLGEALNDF
# T4: Nnf1a^122–147 peptide (Drosophila melanogaster, N-terminus acetylated; C-terminus amidated)
# T4 construct: also called Peptide Nnf1; Nnf1a R122-A147; source: synthetic peptide, bought: GenScript
# T4 peptide: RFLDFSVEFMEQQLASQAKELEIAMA
# B1: 6xHis::Nnf1a–Mis12 heterodimer (complex, Drosophila melanogaster)
# chain 1: MEDSEAAFKRHEGVGPKVKQAYEEAIKQIFADLSCADLQAWDAIYQEHEQSALDTESIVDRTRSLMTKVVLEMNRCFFASNDVPNKLQTLEMLKEHFAAYEGKKWNVNTAAPDKLTRPLRMRFLDFSVEFMEQQLASQAKELEIAMAKSNANRERLQHVHDKRLKLTVQMEQQLSQYEKVKTELIKLGEALNDF
# chain 2: MDFNSLAYDQKFFNFTAAQLSAEREHIVQDIIKKGIGQIIDKIKTPATAELLEAEKETVERRFQASASKGLKALRELDSKVFHVPPHVLHPEHMFVENQYTSEEEEQKTARLEELKAKYRENMAMLAHLKIEEEKYAAMEDLIQKEIEMQDRVQRSCSSLNITKLKQFWNQVPLQIKKETD
# notes: Nnf1a, as m1; Mis12, as m2; 1 : 1 by SEC-MALS; also called MN dimer; MN; source: E. coli BL21(DE3), co-expressed from Duet vectors; in lysate for Ni-NTA co-purification, then purified (Ni-NTA, SEC); copies: 1 + 1
# Columns and labels:
# [1] = target: Mis12–Nnf1a–CENP-C^1–94 complex (Drosophila melanogaster) (UniProt Q9VHP9); test: SEC-MALS; complexes already collected from SEC, stored at 4 °C in SEC buffer and re-loaded; two elution peaks, masses by MALS
# [2] = target: B1; test: SEC-MALS; co-expressed, co-purified complexes on Superdex 200 10/300 at 4 °C, 150 mM NaCl, 10 mM Tris/HCl pH 8.0, in-line MALS and refractometer; details: both partners purified
# [3] = target: T1, 6xHis::CENP-C^1–94; test: as above; details: both partners purified
# [4] = target: T2, 6xHis::Nsl1; test: as above; details: both partners purified
# [5] = target: the molecule itself; test: SEC-MALS; complexes already collected from SEC, stored at 4 °C in SEC buffer and re-loaded; two elution peaks, masses by MALS
# [6] = target: T3, 6xHis::Nnf1a; test: SEC-MALS; co-expressed, co-purified complexes on Superdex 200 10/300 at 4 °C, 150 mM NaCl, 10 mM Tris/HCl pH 8.0, in-line MALS and refractometer; details: both partners purified
# [7] = target: T4, Nnf1a^122–147 peptide; test: circular dichroism; synthetic peptides alone and in equimolar mixture, 0.1 M PBS pH 7.4, 195–270 nm, room temperature; details: both partners purified
molecule,measurement,setting,value
Mis12–Nnf1a–CENP-C^1–94 complex (from UniProt Q9VHP9 1-94),stoichiometry N,[1],2
"CENP-C^1–94 (untagged, recombinant) (domain or fragment, Drosophila melanogaster, UniProt Q9VHP9 1-94, looked up, also called amino-terminal part of CENP-C (residues 1–94); source: E. coli BL21(DE3), co-expressed from Duet vectors; in lysate for Ni-NTA co-purification, then purified (Ni-NTA, SEC)) MSKPQNNDTLELDDILSQPVKDKERFAAFMMRKLAENKPAQNDNLFGNFKLDFDLDFEVPLIKKSQAKPKSKLPEVQPLGELVSKNSAATEKVN",stoichiometry N,[2],1
"Nnf1a + Mis12 (both untagged) (complex, Drosophila melanogaster, Nnf1a, as m6; Mis12, as m2; co-purified through a His tag on the third co-expressed protein; also called Mis12–Nnf1a dimer; MN dimer; source: E. coli BL21(DE3), co-expressed from Duet vectors; in lysate for Ni-NTA co-purification, then purified (Ni-NTA, SEC); copies: 1 + 1) chain 1: MEDSEAAFKRHEGVGPKVKQAYEEAIKQIFADLSCADLQAWDAIYQEHEQSALDTESIVDRTRSLMTKVVLEMNRCFFASNDVPNKLQTLEMLKEHFAAYEGKKWNVNTAAPDKLTRPLRMRFLDFSVEFMEQQLASQAKELEIAMAKSNANRERLQHVHDKRLKLTVQMEQQLSQYEKVKTELIKLGEALNDF chain 2: MDFNSLAYDQKFFNFTAAQLSAEREHIVQDIIKKGIGQIIDKIKTPATAELLEAEKETVERRFQASASKGLKALRELDSKVFHVPPHVLHPEHMFVENQYTSEEEEQKTARLEELKAKYRENMAMLAHLKIEEEKYAAMEDLIQKEIEMQDRVQRSCSSLNITKLKQFWNQVPLQIKKETD",stoichiometry N,[3],1
same,stoichiometry N,[4],1
B1,stoichiometry N,[5],2
"Mis12 (untagged, recombinant) (natural protein, Drosophila melanogaster, UniProt Q9VS01 1-181, looked up, source: E. coli BL21(DE3), co-expressed from Duet vectors; in lysate for Ni-NTA co-purification, then purified (Ni-NTA, SEC)) MDFNSLAYDQKFFNFTAAQLSAEREHIVQDIIKKGIGQIIDKIKTPATAELLEAEKETVERRFQASASKGLKALRELDSKVFHVPPHVLHPEHMFVENQYTSEEEEQKTARLEELKAKYRENMAMLAHLKIEEEKYAAMEDLIQKEIEMQDRVQRSCSSLNITKLKQFWNQVPLQIKKETD",stoichiometry N,[6],1
"Ac-TSEEEEQKTARLEELKAKYRENMAMLAHLK-NH2 (also called Mis12 peptide; Mis12 T101-K130; source: synthetic peptide, bought: GenScript) [Mis12^101–130 peptide]",binding result,[7],binds

# — article PMC4772809, “Network of protein interactions within the Drosophila inner kinetochore” (Open Biology, 2016)
